Experimental data reported in patent US20230357438A1 (BIOSION, published 2023).
Like-named read-outs stand apart in the source and are kept apart here. One block for each binder: values may come before it.

How the values were obtained:
[1] = biological target: T1, recombinant human C5-his protein (Sino Biological Inc., Cat#13416-H18H) (human, UniProt P01031 19-1676); test: competitive ELISA: antibody pre-mixed with biotin-labeled human C5-his 0.99 nM, added to coated Eculizumab; partial inhibition only, value below the range tested
T1 construct: Bought protein; also called wild type human C5; not shown: his tag

[2] = biological target: T1, recombinant human C5-his protein (Sino …); test: capture ELISA: antibody captured on goat anti-human IgG Fc, biotin-labeled human C5-his 0.99 nM, streptavidin-HRP
[3] = biological target: T2, mutant human C5 (R885H)-his protein (Acro biosystems, Cat#CO5-H52Hx) (human, UniProt P01031 19-1676); test: indirect ELISA on coated human C5 (R885H)-his (2 ug/ml), anti-human IgG Fc-HRP
T2 construct: Bought protein; also called human C5 mutant; not shown: his tag

[4] = biological target: T2, mutant human C5 (R885H)-his protein …; test: SPR (Biacore T200), antibody captured by anti-human IgG, C5 in flow, 1:1 fit
[5] = biological target: T3, cynomolgus monkey C5-his protein (Acro biosystems, Cat#CO5-C52Hx) (cynomolgus monkey, UniProt A0A2K5U1T1 19-1676); test: as above
T3 construct: Bought protein; also called Cynomolgus C5-his; cynomolgus C5; not shown: his tag

[6] = biological target: T1, recombinant human C5-his protein (Sino …); test: as above
[7] = biological target: T3, cynomolgus monkey C5-his protein (Acro …); test: indirect ELISA on coated cynomolgus C5-his (1 ug/ml), anti-human IgG Fc-HRP
[8] = biological target: T2, mutant human C5 (R885H)-his protein …; test: indirect ELISA on coated human C5 (R885H)-his (2 ug/ml), anti-human IgG Fc-HRP; remark: listed apart in the source
[9] = biological target: T1, recombinant human C5-his protein (Sino …); test: competitive ELISA: antibody pre-mixed with biotin-labeled human C5-his 0.99 nM, added to coated Eculizumab; partial inhibition only
[10] = biological target: T1, recombinant human C5-his protein (Sino …); test: capture ELISA: antibody captured on goat anti-human IgG Fc, biotin-labeled human C5-his 0.99 nM, streptavidin-HRP; remark: listed apart in the source
[11] = biological target: T3, cynomolgus monkey C5-his protein (Acro …); test: indirect ELISA on coated cynomolgus C5-his (1 ug/ml), anti-human IgG Fc-HRP; remark: listed apart in the source

IC50 [1]: ~0.00153 nM
EC50 [2]: 0.0418 nM
EC50 [3]: 0.0684 nM
Kd [4]: 1.32 nM
koff [4]: 0.000408 s⁻¹
kon [4]: 308000 M⁻¹ s⁻¹
Kd [5]: 0.741 nM
koff [5]: 0.000267 s⁻¹
kon [5]: 360000 M⁻¹ s⁻¹
Kd [6]: 1.6 nM
koff [6]: 0.000186 s⁻¹
kon [6]: 117000 M⁻¹ s⁻¹
EC50 [7]: 0.127 nM
B1: A2E12G12H7 (antibody, V domains shown)
VH: QVQLVQSGAEVKKPGASVKVSCKASGYTFTGYYIHWVRQAPGQGLEWMGWINPNSGSTNSAQKFQDWVTLTRDTSISTAYMELSRLKSDDTAVYYCARRADYYGSGNFYYFDYWGQGTLVTVSS
VL: DIQMTQSPSSVSASVGDRVTISCRASQSISRWLAWYQQKPGKAPKLLIYAATSLQSGVPSRFSGSGFVRDFTLTISSLQPEDFATYYCQQANTFPLIFGGGTKVEIK
notes: Fully human antibody purified from hybridoma; not added here

EC50 [8]: 0.0853 nM
IC50 [9]: ~0.256 nM
EC50 [10]: 0.0277 nM
Kd [4]: 0.303 nM
koff [4]: 0.000153 s⁻¹
kon [4]: 505000 M⁻¹ s⁻¹
Kd [5]: 1.58 nM
koff [5]: 0.000293 s⁻¹
kon [5]: 185000 M⁻¹ s⁻¹
Kd [6]: 0.262 nM
koff [6]: 3.47e-05 s⁻¹
kon [6]: 133000 M⁻¹ s⁻¹
EC50 [11]: 0.128 nM
B2: A5G9C2C7 (antibody, V domains shown)
VH: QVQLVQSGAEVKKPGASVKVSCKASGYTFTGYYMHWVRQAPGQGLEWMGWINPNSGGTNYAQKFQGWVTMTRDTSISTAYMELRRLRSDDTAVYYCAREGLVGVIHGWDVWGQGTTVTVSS
VL: DIQMTQSPSTLSASVGDRVTITCRASQNIYNWLAWYQQKPGKAPKLLIYKASSLESGVPSRFSGSGSGTEFTLTISSLQPDDFATYYCQQYNSNSRTFGQGTKVEIK
notes: as for B1
